Patent publication US20190112348A1

What was measured:
[1] = biological target: purified recombinant human insulin receptor (either with or without exon 11) (human) (UniProt P06213); assay: SPA competition vs A14Tyr[125I]-human insulin on recombinant human insulin receptor, relative to human insulin, 4.5% HSA in buffer
[2] = biological target: purified recombinant human insulin receptor (either with or without exon 11) (human) (UniProt P06213); assay: SPA competition vs A14Tyr[125I]-human insulin on recombinant human insulin receptor, relative to human insulin, 0% HSA

purified recombinant human insulin receptor (either with or without exon 11) (human), sequence (P06213 other isoform, or with tags, fused parts or gaps limits assumed, form in doubt): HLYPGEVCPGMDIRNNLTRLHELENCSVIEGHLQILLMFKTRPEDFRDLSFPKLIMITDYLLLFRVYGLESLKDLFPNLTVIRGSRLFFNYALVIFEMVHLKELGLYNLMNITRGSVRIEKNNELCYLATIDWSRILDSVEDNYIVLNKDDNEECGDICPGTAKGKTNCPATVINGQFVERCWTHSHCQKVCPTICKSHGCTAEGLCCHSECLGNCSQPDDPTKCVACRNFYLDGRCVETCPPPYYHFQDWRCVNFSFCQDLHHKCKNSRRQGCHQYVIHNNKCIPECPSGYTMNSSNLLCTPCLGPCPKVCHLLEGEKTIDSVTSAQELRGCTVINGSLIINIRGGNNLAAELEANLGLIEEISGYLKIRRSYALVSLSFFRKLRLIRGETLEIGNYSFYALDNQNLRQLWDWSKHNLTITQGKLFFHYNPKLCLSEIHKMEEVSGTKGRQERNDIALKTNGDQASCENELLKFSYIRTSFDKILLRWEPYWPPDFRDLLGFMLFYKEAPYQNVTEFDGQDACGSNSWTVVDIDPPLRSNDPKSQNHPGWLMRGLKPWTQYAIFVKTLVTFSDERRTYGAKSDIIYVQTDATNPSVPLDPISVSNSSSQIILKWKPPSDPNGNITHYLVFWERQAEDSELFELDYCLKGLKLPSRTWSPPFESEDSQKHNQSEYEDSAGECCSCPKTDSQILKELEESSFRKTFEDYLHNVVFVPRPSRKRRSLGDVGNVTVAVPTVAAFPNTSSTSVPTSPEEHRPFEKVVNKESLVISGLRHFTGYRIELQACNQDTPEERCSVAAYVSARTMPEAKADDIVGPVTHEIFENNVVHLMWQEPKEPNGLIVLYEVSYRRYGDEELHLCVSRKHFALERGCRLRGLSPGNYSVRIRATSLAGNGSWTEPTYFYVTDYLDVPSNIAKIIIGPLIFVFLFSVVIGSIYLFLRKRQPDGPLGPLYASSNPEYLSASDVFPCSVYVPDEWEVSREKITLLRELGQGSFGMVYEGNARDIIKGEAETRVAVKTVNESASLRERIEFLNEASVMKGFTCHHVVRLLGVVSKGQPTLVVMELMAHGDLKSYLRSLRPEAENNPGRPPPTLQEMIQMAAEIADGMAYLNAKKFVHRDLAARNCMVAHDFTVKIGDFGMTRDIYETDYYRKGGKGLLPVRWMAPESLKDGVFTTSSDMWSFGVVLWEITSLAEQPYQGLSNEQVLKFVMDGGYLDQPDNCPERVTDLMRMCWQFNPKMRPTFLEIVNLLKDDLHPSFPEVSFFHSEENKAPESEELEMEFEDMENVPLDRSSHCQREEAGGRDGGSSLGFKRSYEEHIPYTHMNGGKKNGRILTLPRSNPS

Substance	Relative IR-A affinity (@ 4.5% HSA) [1] [%]	Relative IR-A affinity (@ 0% HSA) [2] [%]
A14E, B25H, B27K(N^εOctadecanedioyl-γGlu-OEG-OEG), desB28, desB29, desB30 Human Insulin (from UniProt P01308 90-110; P01308 25-51) (ligand)	0.08	1.9
A14E, B25H, desB27, B29K(N^εOctadecanedioyl-γGlu-OEG-OEG), desB30 Human Insulin (from UniProt P01308 90-110; P01308 25-50; P01308 52-53) (ligand)	–	2.5
